Tests used:
[1] = test system: ScoMcrA-SBD A168I (Streptomyces coelicolor); experiment: EMSA; settings: Rp phosphorothioate G(PS)GCC, both strands, EMSA: 20 mM Tris-HCl pH 8.5, 200 mM NaCl, 1 mM DTT, 5% glycerol, 4 C, 30 min, FP: 20 mM Tris pH 8.0, 50 mM NaCl, room temperature, 5 nM …
[2] = test system: ScoMcrA-SBD S187A (Streptomyces coelicolor); experiment: EMSA; settings: Rp phosphorothioate G(PS)GCC, both strands, EMSA: 20 mM Tris-HCl pH 8.5, 200 mM NaCl, 1 mM DTT, 5% glycerol, 4 C, 30 min, FP: 20 mM Tris pH 8.0, 50 mM NaCl, room temperature, 5 nM …
[3] = test system: ScoMcrA-SBD R191A (Streptomyces coelicolor); experiment: EMSA; settings: Rp phosphorothioate G(PS)GCC, both strands, EMSA: 20 mM Tris-HCl pH 8.5, 200 mM NaCl, 1 mM DTT, 5% glycerol, 4 C, 30 min, FP: 20 mM Tris pH 8.0, 50 mM NaCl, room temperature, 5 nM …
[4] = test system: ScoMcrA-SBD H116I (Streptomyces coelicolor); experiment: EMSA; settings: Rp phosphorothioate G(PS)GCC, both strands, EMSA: 20 mM Tris-HCl pH 8.5, 200 mM NaCl, 1 mM DTT, 5% glycerol, 4 C, 30 min, FP: 20 mM Tris pH 8.0, 50 mM NaCl, room temperature, 5 nM …
[5] = test system: ScoMcrA-SBD R190A (Streptomyces coelicolor); experiment: EMSA; settings: Rp phosphorothioate G(PS)GCC, both strands, EMSA: 20 mM Tris-HCl pH 8.5, 200 mM NaCl, 1 mM DTT, 5% glycerol, 4 C, 30 min, FP: 20 mM Tris pH 8.0, 50 mM NaCl, room temperature, 5 nM …
[6] = test system: ScoMcrA-SBD Y164I (Streptomyces coelicolor); experiment: EMSA; settings: Rp phosphorothioate G(PS)GCC, both strands, EMSA: 20 mM Tris-HCl pH 8.5, 200 mM NaCl, 1 mM DTT, 5% glycerol, 4 C, 30 min, FP: 20 mM Tris pH 8.0, 50 mM NaCl, room temperature, 5 nM …
[7] = test system: ScoMcrA-SBD Y164F (Streptomyces coelicolor); experiment: EMSA; settings: Rp phosphorothioate G(PS)GCC, both strands, EMSA: 20 mM Tris-HCl pH 8.5, 200 mM NaCl, 1 mM DTT, 5% glycerol, 4 C, 30 min, FP: 20 mM Tris pH 8.0, 50 mM NaCl, room temperature, 5 nM …
ScoMcrA-SBD [8] = biological target: T1, ScoMcrA-SBD (Streptomyces coelicolor, UniProt Q9L0M9 91-260); experiment: fluorescence polarization; settings: phosphorothioate G(PS)GCC, EMSA: 20 mM Tris-HCl pH 8.5, 200 mM NaCl, 1 mM DTT, 5% glycerol, 4 C, 30 min, FP: 20 mM Tris pH 8.0, 50 mM NaCl, room temperature, 5 nM …
T1 sequence: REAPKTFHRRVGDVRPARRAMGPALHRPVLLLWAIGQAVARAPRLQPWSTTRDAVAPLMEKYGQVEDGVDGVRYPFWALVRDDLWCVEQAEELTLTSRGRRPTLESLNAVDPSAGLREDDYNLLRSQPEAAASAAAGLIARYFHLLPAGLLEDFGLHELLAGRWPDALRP

[9] = test system: ScoMcrA-SBD R117K (Streptomyces coelicolor); experiment: fluorescence polarization; settings: phosphorothioate G(PS)GCC, EMSA: 20 mM Tris-HCl pH 8.5, 200 mM NaCl, 1 mM DTT, 5% glycerol, 4 C, 30 min, FP: 20 mM Tris pH 8.0, 50 mM NaCl, room temperature, 5 nM …
ScoMcrA-SBD [10] = biological target: T1, ScoMcrA-SBD; experiment: crystal structure (1.70 A); EMSA: 20 mM Tris-HCl pH 8.5, 200 mM NaCl, 1 mM DTT, 5% glycerol, 4 C, 30 min; FP: 20 mM Tris pH 8.0, 50 mM NaCl, 1 mM DTT, 5% glycerol, room temperature, 5 nM FAM-DNA; settings: protein: recombinant; tags: MBP tag removed by TEV; blunt
ScoMcrA-SBD-SRA = biological target: T2, ScoMcrA-SBD-SRA (Streptomyces coelicolor, UniProt Q9L0M9 91-442); experiment: crystal structure (3.30 A); EMSA: 20 mM Tris-HCl pH 8.5, 200 mM NaCl, 1 mM DTT, 5% glycerol, 4 C, 30 min; FP: 20 mM Tris pH 8.0, 50 mM NaCl, 1 mM DTT, 5% glycerol, room temperature, 5 nM FAM-DNA; settings: protein: recombinant; tags: MBP tag removed by TEV; chain copies: 2; blunt
T2 sequence: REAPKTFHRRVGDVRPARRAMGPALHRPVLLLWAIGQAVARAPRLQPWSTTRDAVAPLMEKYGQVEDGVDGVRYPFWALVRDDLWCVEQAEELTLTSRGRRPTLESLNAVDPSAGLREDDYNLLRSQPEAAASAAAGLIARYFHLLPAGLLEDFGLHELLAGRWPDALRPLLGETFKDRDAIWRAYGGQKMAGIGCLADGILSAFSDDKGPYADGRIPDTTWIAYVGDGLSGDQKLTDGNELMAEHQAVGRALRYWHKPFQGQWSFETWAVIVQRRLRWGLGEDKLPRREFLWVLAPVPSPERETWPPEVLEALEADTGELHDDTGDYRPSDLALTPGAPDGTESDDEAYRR

[11] = biological target: the molecule itself; experiment: crystal structure; ScoMcrA-SBD-SRA (91-442) with 10 bp Rp PT-DNA, 3.30 Å, space group I4122; the two protomers are related by the crystallographic two-fold rotation axis
ScoMcrA FL = biological target: T3, ScoMcrA FL (Streptomyces coelicolor, UniProt Q9L0M9 1-560); experiment: EMSA; EMSA: 20 mM Tris-HCl pH 8.5, 200 mM NaCl, 1 mM DTT, 5% glycerol, 4 C, 30 min; FP: 20 mM Tris pH 8.0, 50 mM NaCl, 1 mM DTT, 5% glycerol, room temperature, 5 nM FAM-DNA; settings: protein: recombinant; tags: MBP tag removed by TEV; chain copies: 2; blunt
T3 sequence: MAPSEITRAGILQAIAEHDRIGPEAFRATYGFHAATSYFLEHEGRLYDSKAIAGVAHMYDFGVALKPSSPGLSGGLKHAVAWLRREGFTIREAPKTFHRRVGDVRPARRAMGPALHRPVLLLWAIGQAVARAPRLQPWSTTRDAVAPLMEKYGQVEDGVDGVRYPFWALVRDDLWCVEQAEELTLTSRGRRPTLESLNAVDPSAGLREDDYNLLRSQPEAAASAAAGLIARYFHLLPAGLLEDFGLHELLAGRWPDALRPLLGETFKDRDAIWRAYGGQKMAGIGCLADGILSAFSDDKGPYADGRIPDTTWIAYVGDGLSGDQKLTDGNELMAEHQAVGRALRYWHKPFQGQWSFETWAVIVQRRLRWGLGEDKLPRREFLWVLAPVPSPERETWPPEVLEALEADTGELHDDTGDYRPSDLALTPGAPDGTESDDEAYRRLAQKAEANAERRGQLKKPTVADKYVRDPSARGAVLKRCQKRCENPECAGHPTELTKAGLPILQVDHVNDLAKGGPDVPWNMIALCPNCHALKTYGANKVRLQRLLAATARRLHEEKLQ

ScoMcrA-SBD [12] = biological target: T1, ScoMcrA-SBD; experiment: as above; settings: protein: recombinant; tags: MBP tag removed by TEV; blunt
[13] = biological target: the molecule itself; experiment: crystal structure; full-length ScoMcrA alone, 3.15 Å, space group P212121, six molecules in each asymmetric unit

**Q.** Rp PT-DNA, GGCC core (EMSA) was tested. Which binding signal (% reduction vs WT) [1] did it give?
**A.** 51

**Q.** What about the binding signal (% reduction vs WT) [2] of the same molecule?
**A.** 38

**Q.** What about the binding signal (% reduction vs WT) [3] of the same molecule?
**A.** 72

**Q.** What about the binding signal (% reduction vs WT) [4] of the same molecule?
**A.** 94

**Q.** What about the binding signal (% reduction vs WT) [5] of the same molecule?
**A.** 82

**Q.** And the binding signal (% reduction vs WT) [6]?
**A.** 89

**Q.** What about the binding signal (% reduction vs WT) [7] of the same molecule?
**A.** 65

**Q.** With 5-FAM hemi-PT-DNA (FP) as the molecule, how does the Kd (ScoMcrA-SBD [8]; one strand) read?
**A.** 1470 nM

**Q.** With 5-FAM PT-DNA, GGCC core (FP) as the molecule, how does the Kd [9] read?
**A.** 1550 nM

**Q.** What about the Kd (ScoMcrA-SBD [8]) of the same molecule?
**A.** 1320 nM

B1: GGCC8 Rp (dsDNA)
DNA 1: CCGGCCGG
DNA 2: CCGGCCGG
modifications: Rp phosphorothioate between G3 and G4, both strands
**Q.** Does B1 bind (ScoMcrA-SBD [10])?
**A.** binds

B2: GGCC10 Rp (dsDNA)
DNA 1: CCCGGCCGGG
DNA 2: CCCGGCCGGG
modifications: Rp phosphorothioate between G4 and G5, both strands
**Q.** Does B2 bind (ScoMcrA-SBD-SRA)?
**A.** binds

B3: SBD-SRA domains of ScoMcrA (residues 91-442) (domain or fragment, Streptomyces coelicolor, UniProt Q9L0M9 91-442, looked up)
chain: REAPKTFHRRVGDVRPARRAMGPALHRPVLLLWAIGQAVARAPRLQPWSTTRDAVAPLMEKYGQVEDGVDGVRYPFWALVRDDLWCVEQAEELTLTSRGRRPTLESLNAVDPSAGLREDDYNLLRSQPEAAASAAAGLIARYFHLLPAGLLEDFGLHELLAGRWPDALRPLLGETFKDRDAIWRAYGGQKMAGIGCLADGILSAFSDDKGPYADGRIPDTTWIAYVGDGLSGDQKLTDGNELMAEHQAVGRALRYWHKPFQGQWSFETWAVIVQRRLRWGLGEDKLPRREFLWVLAPVPSPERETWPPEVLEALEADTGELHDDTGDYRPSDLALTPGAPDGTESDDEAYRR
notes: ScoMcrA (ScoA3McrA), Streptomyces coelicolor, SBD-SRA domains, residues 91-442; Crystallised in complex with a 10 bp Rp PT-DNA; the dimer is formed by a crystallographic two-fold axis; also called ScoMcrA-SBD-SRA; source: E. coli BL21(DE3), purified (HisTrap, TEV cleavage, heparin, Source 15Q, Superdex 200)
**Q.** How did the “stoichiometry N” value [11] turn out when B3 was run?
**A.** 2

B4: hemi-PT-DNA (S10hemi-S/U10hemi-A) (dsDNA)
DNA 1: CCCGGCCGCC
DNA 2: GGCGGCCGGG
modifications: Rp phosphorothioate between G4 and G5 of strand 1 only
**Q.** Does B4 bind (ScoMcrA FL)?
**A.** binds

**Q.** Does B4 bind (ScoMcrA-SBD [12])?
**A.** binds

B5: full-length Streptomyces coelicolor ScoMcrA (ScoA3McrA), DNA phosphorothioation-dependent Type-IV restriction endonuclease (enzyme, UniProt Q9L0M9 1-560, looked up)
chain: MAPSEITRAGILQAIAEHDRIGPEAFRATYGFHAATSYFLEHEGRLYDSKAIAGVAHMYDFGVALKPSSPGLSGGLKHAVAWLRREGFTIREAPKTFHRRVGDVRPARRAMGPALHRPVLLLWAIGQAVARAPRLQPWSTTRDAVAPLMEKYGQVEDGVDGVRYPFWALVRDDLWCVEQAEELTLTSRGRRPTLESLNAVDPSAGLREDDYNLLRSQPEAAASAAAGLIARYFHLLPAGLLEDFGLHELLAGRWPDALRPLLGETFKDRDAIWRAYGGQKMAGIGCLADGILSAFSDDKGPYADGRIPDTTWIAYVGDGLSGDQKLTDGNELMAEHQAVGRALRYWHKPFQGQWSFETWAVIVQRRLRWGLGEDKLPRREFLWVLAPVPSPERETWPPEVLEALEADTGELHDDTGDYRPSDLALTPGAPDGTESDDEAYRRLAQKAEANAERRGQLKKPTVADKYVRDPSARGAVLKRCQKRCENPECAGHPTELTKAGLPILQVDHVNDLAKGGPDVPWNMIALCPNCHALKTYGANKVRLQRLLAATARRLHEEKLQ
notes: ScoMcrA (ScoA3McrA), Streptomyces coelicolor, full length; head, SBD, SRA and HNH domains; the model reaches residue 560; The structure was phased by SAD with a selenomethionine derivative of the full-length protein; Cloned into pSJ8; also called FL ScoMcrA; source: E. coli BL21(DE3), purified (HisTrap, TEV cleavage, heparin, Source 15Q, Superdex 200)
**Q.** With B5 as the molecule, how does the “stoichiometry N” value [13] read?
**A.** 2
